Assays:
[1] = tested on: MDAMB435/5T4 cells; assay: Modulation/internalization of antibodies by MDAMB435/5T4 cells (FACS); type: cell-based, human; conditions: 37° C., 4 or 24 hours, 4C
Description: FIGS. 4A-4C are line graphs that show modulation of H8, A1, A2, and A3 antibodies by MDAMB435/5T4 cells. […] MCF, mean cellular fluorescence; supt, supernatant.
To assess internalization of antibodies upon binding to 5T4 antigen, the amount of H8 and A1 antibodies detected at the cell surface versus in the supernatant was determined as a function of time. Non-enzymatically dissociated MDAMB435/5T4 cells (human breast cancer cells) were exposed to anti-5T4 antibodies for 1 hour at 4° C. Cells were washed and incubated in media at 37° C. for 4 hours or 24 hours. The amount of antibody bound to cellular membranes versus unbound antibody (i.e., presence in the supernatant) was determined using FACS.

[2] = molecular target: T1, human/mouse 173-361 5T4 chimera (Homo sapiens, UniProt Q13641, A205S/A340S/D319A/E189Q/E336D/G276S/G317D/H238Y/H301Y/I287V/I347V/INS199AFEGMV/L204R/L281W/P285A/P346A/P350Q/Q210R/Q282H/Q316P/R193G/R207L/R213T/R288K/S242R/T307A/V176E/V200A/V229L/V252A/V333G/Y224F/Y325F); assay: Epitope mapping ELISA, human/mouse 5T4 chimeras; type: binding; set-up: key: +: binding; −: no binding; +/−: partial binding
T1 construct: made in house; host or cells: COS-1 cells (transient)
T1 sequence (Q13641 with tags, fused parts or gaps V176E/E189Q/R193G/INS199AFEGMV/V200A/L204R/A205S/R207L/Q210R/R213T/Y224F/V229L/H238Y/S242R/V252A/G276S/L281W/Q282H/P285A/I287V/R288K/H301Y/T307A/Q316P/G317D/D319A/Y325F/V333G/E336D/A340S/P346A/I347V/P350Q limits assumed): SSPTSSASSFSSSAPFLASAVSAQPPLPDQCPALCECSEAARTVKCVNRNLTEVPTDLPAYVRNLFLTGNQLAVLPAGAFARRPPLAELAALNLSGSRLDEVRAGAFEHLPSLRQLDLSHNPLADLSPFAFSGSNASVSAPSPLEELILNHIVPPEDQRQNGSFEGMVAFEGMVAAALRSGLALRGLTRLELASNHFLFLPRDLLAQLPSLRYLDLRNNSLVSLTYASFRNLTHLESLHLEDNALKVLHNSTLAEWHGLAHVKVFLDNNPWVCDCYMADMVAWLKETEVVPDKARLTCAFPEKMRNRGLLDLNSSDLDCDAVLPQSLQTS
Description: (§1) To identify the epitopes to which each of the A1, A2, A3, and H8 antibodies bind, ELISA assays were performed using (1) 5T4 ectodomain Fc constructs with deleted or mutated sequences, and (2) 5T4 chimera constructs transiently expressed in COS-1 cells. The ectodomain includes the amino-terminal region, two leucine-rich repeats, and the intervening hydrophilic region. Fusion proteins containing a 5T4 ectodomain and a Fc constant regions from human IgG1 were prepared using mouse 5T4 (amino acids 1-361), rat 5T4 (amino acids 1-361), cynomologous monkey 5T4 (amino acids 1-355), chimpanzee 5T4 (amino acids 1-355), and black-tailed marmoset (amino acids 1-355). The 5T4 chimera constructs are depicted in FIG. 5. The binding results are summarized in Table 5, which indicates specific binding, partial binding, or lack of binding, by each of the H8, A1, A2, and A3 antibodies.

[3] = tested on: human/mouse 282-361 5T4 chimera (with or without N-link at position 344); assay: Epitope mapping ELISA, human/mouse 5T4 chimeras; type: binding; set-up: key: +: binding; −: no binding; +/−: partial binding; conditions: human/mouse 282-361 (with or without N-link at position 344)
Description: as §1

[4] = tested on: human/mouse 83-163 5T4 chimera; assay: Epitope mapping ELISA, human/mouse 5T4 chimeras; type: binding; set-up: key: +: binding; −: no binding; +/−: partial binding
Description: as §1

[5] = tested on: human/mouse 173-258 5T4 chimera; assay: Epitope mapping ELISA, human/mouse 5T4 chimeras; type: binding; set-up: key: +: binding; −: no binding; +/−: partial binding
Description: as §1

[6] = molecular target: T2, human 5T4 antigen (Homo sapiens, UniProt Q13641); assay: BIACORE analysis of antibody binding to human 5T4 antigen immobilized on a CM5 chip; conditions: murine antibodies, Table 3
T2 sequence (Q13641 32-420): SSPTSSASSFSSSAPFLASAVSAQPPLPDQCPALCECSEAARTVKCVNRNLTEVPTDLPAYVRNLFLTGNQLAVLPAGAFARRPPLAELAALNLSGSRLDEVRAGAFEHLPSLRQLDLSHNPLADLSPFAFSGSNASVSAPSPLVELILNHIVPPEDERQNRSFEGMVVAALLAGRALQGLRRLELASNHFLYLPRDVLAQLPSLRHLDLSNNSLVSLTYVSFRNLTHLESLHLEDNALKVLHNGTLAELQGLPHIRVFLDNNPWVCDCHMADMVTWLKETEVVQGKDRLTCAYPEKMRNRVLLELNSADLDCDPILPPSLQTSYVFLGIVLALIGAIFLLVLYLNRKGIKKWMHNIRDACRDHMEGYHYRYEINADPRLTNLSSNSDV
Description: To assess the binding specificity and affinity of the A1, A2, and A3 antibodies, BIACORE® analysis was performed using human 5T4 antigen immobilized on a CM5 chip. BIACORE® technology utilizes changes in the refractive index at the surface layer upon binding of the antibody to the 5T4 antigen immobilized on the layer. Binding is detected by surface plasmon resonance (SPR) of laser light refracting from the surface. Analysis of the signal kinetics on rate and off rate allows discrimination between non-specific and specific interactions. The H8 anti-5T4 antibody was used as a control. H8 is a hybridoma-generated monoclonal mouse IgG1 antibody described in PCT International Publication No. WO 98/55607 and in Forsberg et al. (1997) J. Biol. Chem. 272(19):[…].
To assess the binding specificity and affinity of the chimeric and humanized H8, A1, A2, and A3 antibodies, BIACORE® analysis was performed using human 5T4 antigen immobilized on a CM5 chip. See Example 2.

[7] = molecular target: T2, human 5T4 antigen; assay: BIACORE competition assay: second antibody after saturation with first antibody; type: binding
Description: Epitope mapping of the H8, A1, A2, and A3 antibodies was also performed using BIACORE® using a CM5 chip with bound human 5T4 antigen. The chip was saturated with H8, A1, A2, or A3 antibody, and a first response was measured. The chip was then saturated with a second antibody from among the H8, A1, A2, and A3 antibodies, and a second response was measured. For multiple experiments, the chip was regenerated by dissociation of the bound antibodies in 10 mM glycine, pH 1.5, followed by a buffer wash. The percentages shown are the response units measured upon binding by a second antibody directly to the CM5 chip divided by the response units measured upon binding of the second antibody to a CM5 chip saturated with a first antibody.
The epitopes bound by the H8 and A3 antibodies are sterically close to each other such that the rate of association with antigen is decreased when binding of H8 is assayed in the presence of A3, and vice versa. Similar results were obtained using the chimeric and humanized H8, A1, A2, and A3 antibodies, which were prepared as described in Example 7 herein below.

B1: A2: murine anti-5T4 monoclonal antibody (IgG2b heavy chain); VH residues 19-135 of SEQ ID NO:6, VL residues 23-130 of SEQ ID NO:8 (antibody, listed as Mus musculus, V domains shown)
VH: MEWRIFLFILSGTAGVHSQVQLQQSRPELVKPGASVKMSCKASGYTFTDYVISWVKQRTGQGLEWIGEIYPGSNSIYYNEKFKGRATLTADKSSSTAYMQLSSLTSEDSAVYFCAMGGNYGFDYWGQGTTLTVSS
VL: MDFQVQIFSFLLISASVIMSRGQIVLTQSPAIMSASLGERVTLTCTASSSVNSNYLHWYQQKPGSSPKLWIYSTSNLASGVPARFSGSGSGTSYSLTISSMEAEDAATYYCHQYHRSPLTFGAGTKLELK
modifications: (1)..(18) leader sequence; (19)..(135) heavy chain variable region; (44)..(53) CDR1; (68)..(84) CDR2; (117)..(124) CDR3; (1)..(22) leader sequence; (23)..(130) light chain variable region; (46)..(56) CDR1; (73)..(79) CDR2; (112)..(120) CDR3
In the case of B1, the “levels of antibody at the cell surface” value ([1]; FIGS. 4A) is reported as “decline over time”, the “levels of antibody in the supernatant” value ([1]; FIGS. 4B) is reported as “remain constant” and the “binding to 5T4 antigen construct” value [2] is reported as “−”. The “binding to 5T4 antigen construct” value [3] was “−”, the “binding to 5T4 antigen construct” value [4] was “+” and the “binding to 5T4 antigen construct” value [5] was “+”. The “KA” value [6] was 6.5e+07 M⁻¹, the “ka” value [6] was 56000 M⁻¹ s⁻¹ and the “kd” value [6] was 0.00087 s⁻¹. For the same molecule, the “Percentage Response of Second Antibody Following Saturation With First Antibody” value ([7]; 1st antibody A1) was 98% and the “Percentage Response of Second Antibody Following Saturation With First Antibody” value ([7]; 1st antibody A3) was 94%.
